Measured values taken from publication PMC6082870 (2018).

T1: human lysyl hydroxylase 3 (LH3/PLOD3), wild type (human, UniProt O60568 25-738, N-linked glycosylations at Asn63 and Asn548)
T1 chain: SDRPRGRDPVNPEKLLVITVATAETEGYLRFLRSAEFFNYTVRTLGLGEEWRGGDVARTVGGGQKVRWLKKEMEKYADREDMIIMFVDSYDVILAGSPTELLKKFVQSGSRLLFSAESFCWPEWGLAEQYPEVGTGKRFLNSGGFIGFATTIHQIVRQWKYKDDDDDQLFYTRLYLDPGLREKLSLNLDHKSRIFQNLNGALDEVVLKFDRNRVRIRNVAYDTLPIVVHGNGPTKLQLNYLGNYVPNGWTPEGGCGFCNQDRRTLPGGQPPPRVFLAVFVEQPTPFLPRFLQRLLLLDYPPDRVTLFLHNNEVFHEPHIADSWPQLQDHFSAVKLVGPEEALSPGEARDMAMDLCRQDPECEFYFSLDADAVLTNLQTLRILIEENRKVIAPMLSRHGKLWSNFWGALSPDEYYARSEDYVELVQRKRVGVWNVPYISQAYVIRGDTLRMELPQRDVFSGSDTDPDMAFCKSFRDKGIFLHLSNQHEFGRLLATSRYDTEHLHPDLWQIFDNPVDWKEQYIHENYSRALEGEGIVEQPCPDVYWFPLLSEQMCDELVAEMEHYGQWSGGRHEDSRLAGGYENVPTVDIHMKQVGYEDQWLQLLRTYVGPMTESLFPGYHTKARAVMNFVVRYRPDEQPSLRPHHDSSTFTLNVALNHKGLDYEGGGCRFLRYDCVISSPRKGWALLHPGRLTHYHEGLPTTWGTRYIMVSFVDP


Legend:
Test in all cases: SPR
[1] = target: T1, human lysyl hydroxylase 3 (LH3/PLOD3), …
[2] = target: LH3 W75A mutant (human, UniProt O60568 25-738, W75A)
LH3 W75A mutant, sequence (O60568 25-738 W75A): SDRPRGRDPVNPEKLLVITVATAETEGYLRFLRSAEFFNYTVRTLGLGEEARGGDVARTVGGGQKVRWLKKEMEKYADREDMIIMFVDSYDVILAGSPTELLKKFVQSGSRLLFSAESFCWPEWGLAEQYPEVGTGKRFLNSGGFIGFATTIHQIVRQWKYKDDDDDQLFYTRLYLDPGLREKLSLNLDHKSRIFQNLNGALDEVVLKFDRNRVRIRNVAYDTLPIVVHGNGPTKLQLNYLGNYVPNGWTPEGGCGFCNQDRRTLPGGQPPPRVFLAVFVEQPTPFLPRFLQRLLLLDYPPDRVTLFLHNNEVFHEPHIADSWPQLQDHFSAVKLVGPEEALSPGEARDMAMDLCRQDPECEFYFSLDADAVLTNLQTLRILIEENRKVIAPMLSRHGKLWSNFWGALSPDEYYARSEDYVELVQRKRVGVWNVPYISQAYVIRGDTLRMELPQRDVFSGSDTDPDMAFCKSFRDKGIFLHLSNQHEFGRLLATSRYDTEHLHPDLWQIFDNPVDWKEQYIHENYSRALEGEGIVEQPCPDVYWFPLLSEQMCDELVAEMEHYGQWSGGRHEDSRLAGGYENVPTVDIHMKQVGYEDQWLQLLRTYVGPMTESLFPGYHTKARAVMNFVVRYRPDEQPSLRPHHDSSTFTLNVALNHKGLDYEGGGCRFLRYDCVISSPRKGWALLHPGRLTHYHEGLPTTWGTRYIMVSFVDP

[3] = target: LH3 Y114A mutant (human, UniProt O60568 25-738, Y114A)
LH3 Y114A mutant, sequence (O60568 25-738 Y114A): as the sequence (O60568 25-738 W75A) above, with A51W, Y90A counted along it

Kd [1] | Kd [2] | Kd [3] | Binder
2.4 mM |  |  | GIKGIKGIKGIK
6.7 mM |  |  | IKGIKGIKG
4.4 mM | 4.7 mM | 6.3 mM | ARGIKGIRGFS
